# Laboratory results: publication PMC6628914 (Frontiers in Immunology, 2019)
# B1: 2G12 Fab, Alexa 488- or Alexa 568-labelled (Fab, V domains shown)
# VH: EVQLVESGGGLVKAGGSLILSCGVSNFRISAHTMNWVRRVPGGGLEWVASISTSSTYRDYADAVKGRFTVSRDDLEDFVYLQMHKMRVEDTAIYYCARKGSDRLSDNDPFDAWGPGTVVTVSP
# VL: DVVMTQSPSTLSASVGDTITITCRASQSIETWLAWYQQKPGKAPKLLIYKASTLKTGVPSRFSGSGSGTEFTLTISGLQFDDFATYHCQHYAGYSATFGQGTRVEIK
# Biological target: T1, HIV-1 JRFL envelope (Env, gp120-gp41) on HIV-1 JRFL pseudovirions (HIV-1 JR-FL, UniProt Q75760, strain)
# T1 construct: also called HIV-1 JRFL virions; tier-2 JRFL pseudovirus; copies: 3 + 3
# Experiment: FRET or BRET + other: fluorescence correlation spectroscopy (FRET-FCS); all reactants in solution; donor (Alexa 488) and acceptor (Alexa 568) labelled Fabs with virions at 10 μg/ml (about 1.5 virions in the 1 fL focal volume); FRET bursts and diffusion coefficient of the acceptor channel (6 μm^2/s for virion-bound Fab)
# Details: one partner purified
binder,measurement,value
B1,binding result,binds
